{
  "source": "paper PMC12453405",
  "assay_in_all_cases": "quartz crystal microbalance (QCM); purified N protein injected first onto the coated quartz crystal, then GST, then Grb2-GST; PBS pH 7.4, flow 60 μl/min; Tris-HCl pH 8.0 between injections; binding ratio = amplitude difference of Grb2-GST before and after binding over the amplitude of N protein",
  "key": {"[1]": {"target": "PEDV-N (His-fused N protein of Alphacoronavirus PEDV) (PEDV)"}, "[2]": {"target": "mPDCoV-N (P61A/P292A) (porcine deltacoronavirus (PDCoV))"}, "[3]": {"target": "wPDCoV-N (His-fused PDCoV N protein) (porcine deltacoronavirus (PDCoV))"}},
  "data": [
    {"substance": "Grb2-GST (pGEX-Grb2) (from UniProt B6E241 1-217) (natural protein)", "values": [
      {"measurement": "binding ratio", "setting": "[1]", "result": 23.5, "unit": "%"},
      {"measurement": "binding ratio", "setting": "[2]", "result": 19.7, "unit": "%"},
      {"measurement": "binding ratio", "setting": "[3]", "result": 31.6, "unit": "%"}
    ]}
  ]
}
